Laboratory results reported in patent publication EP3228631A2 (TLA Targeted Immunotherapies AB, dated 2017).
Each block holds one molecule with its values, some of them ahead of it.

Tests used:
hCXCR1 (human) = hCXCR1 (human) (UniProt P25024); assay: cell-based or functional assay
CCR5 (human) [1] = target: CCR5 (human) (UniProt P51681); assay: cell-based or functional assay
CCR1 (human) = target: T1, CCR1 (human) (UniProt P32246); assay: blood passed through the biotinylated RANTES coupled matrix column; flow cytometry for CCR1, 3 or 5-expressing cells; one healthy donor
T1 sequence (looked up): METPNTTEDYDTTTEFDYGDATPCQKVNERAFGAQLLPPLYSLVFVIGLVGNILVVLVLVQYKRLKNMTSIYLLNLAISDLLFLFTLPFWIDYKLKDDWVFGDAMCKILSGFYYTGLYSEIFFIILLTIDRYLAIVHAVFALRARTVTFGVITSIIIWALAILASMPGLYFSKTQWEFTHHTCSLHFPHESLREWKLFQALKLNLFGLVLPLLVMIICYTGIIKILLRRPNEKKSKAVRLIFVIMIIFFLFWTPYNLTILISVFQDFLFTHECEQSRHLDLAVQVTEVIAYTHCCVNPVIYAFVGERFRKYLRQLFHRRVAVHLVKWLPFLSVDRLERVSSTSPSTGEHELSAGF

CCR3 (human) [2] = target: CCR3 (human) (UniProt P51677); assay: as above
CCR3 (human), sequence (P51677 whole entry): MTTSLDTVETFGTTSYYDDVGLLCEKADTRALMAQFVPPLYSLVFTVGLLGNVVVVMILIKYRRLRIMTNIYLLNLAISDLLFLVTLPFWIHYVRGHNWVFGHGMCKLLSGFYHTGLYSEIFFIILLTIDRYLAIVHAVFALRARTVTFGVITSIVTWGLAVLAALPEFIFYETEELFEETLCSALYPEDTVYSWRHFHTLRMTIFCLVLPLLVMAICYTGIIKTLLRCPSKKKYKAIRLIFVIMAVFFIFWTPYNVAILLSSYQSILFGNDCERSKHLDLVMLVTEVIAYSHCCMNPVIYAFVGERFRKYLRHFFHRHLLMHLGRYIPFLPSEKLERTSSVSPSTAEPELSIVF

CCR5 (human) [3] = target: CCR5 (human) (UniProt P51681); assay: as above
CCR3 (human) [4] = target: CCR3 (human) (UniProt P51677); assay: blood passed through the eotaxin coupled matrix (MACS beads, magnetic separator); flow cytometry before and after; one healthy donor
CCR7 = target: T2, CCR7 (human, UniProt P32248 25-378); assay: cell-based or functional assay
T2 sequence (looked up): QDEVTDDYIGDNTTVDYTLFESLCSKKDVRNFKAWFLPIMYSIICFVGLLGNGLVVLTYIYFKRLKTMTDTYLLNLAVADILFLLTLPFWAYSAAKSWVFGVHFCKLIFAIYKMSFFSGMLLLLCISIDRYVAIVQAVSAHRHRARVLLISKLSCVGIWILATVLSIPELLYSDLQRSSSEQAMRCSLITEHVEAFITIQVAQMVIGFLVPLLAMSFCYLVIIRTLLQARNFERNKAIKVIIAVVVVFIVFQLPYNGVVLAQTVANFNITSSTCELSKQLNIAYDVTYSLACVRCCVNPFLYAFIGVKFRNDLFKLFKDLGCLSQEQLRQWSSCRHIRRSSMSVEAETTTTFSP

CCR3 (human) [5] = target: CCR3 (human) (UniProt P51677); assay: cell-based or functional assay
hCCR2b = target: T3, hCCR2b (human, UniProt P41597 1-374); assay: cell-based or functional assay
T3 chain: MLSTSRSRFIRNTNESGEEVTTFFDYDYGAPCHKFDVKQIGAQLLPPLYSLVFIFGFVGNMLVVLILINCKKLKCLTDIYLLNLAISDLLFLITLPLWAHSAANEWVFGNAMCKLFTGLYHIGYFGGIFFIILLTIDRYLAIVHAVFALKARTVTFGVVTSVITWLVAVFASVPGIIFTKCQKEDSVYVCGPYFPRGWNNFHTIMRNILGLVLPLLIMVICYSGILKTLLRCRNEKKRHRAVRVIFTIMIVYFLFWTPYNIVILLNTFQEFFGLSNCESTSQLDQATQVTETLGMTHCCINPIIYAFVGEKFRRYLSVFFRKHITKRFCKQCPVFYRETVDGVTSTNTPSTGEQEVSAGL

CCR5 (human), sequence (P51681 whole entry): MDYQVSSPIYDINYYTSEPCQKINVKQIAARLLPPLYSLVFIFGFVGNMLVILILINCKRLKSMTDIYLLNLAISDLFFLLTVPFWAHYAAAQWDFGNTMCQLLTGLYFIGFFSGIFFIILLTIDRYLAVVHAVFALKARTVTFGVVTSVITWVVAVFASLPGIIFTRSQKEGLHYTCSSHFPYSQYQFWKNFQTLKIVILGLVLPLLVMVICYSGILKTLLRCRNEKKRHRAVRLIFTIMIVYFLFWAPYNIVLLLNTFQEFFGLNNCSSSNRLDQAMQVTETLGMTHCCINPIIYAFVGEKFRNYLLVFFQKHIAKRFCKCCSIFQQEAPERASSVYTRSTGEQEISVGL
hCXCR1 (human), sequence (P25024 whole entry): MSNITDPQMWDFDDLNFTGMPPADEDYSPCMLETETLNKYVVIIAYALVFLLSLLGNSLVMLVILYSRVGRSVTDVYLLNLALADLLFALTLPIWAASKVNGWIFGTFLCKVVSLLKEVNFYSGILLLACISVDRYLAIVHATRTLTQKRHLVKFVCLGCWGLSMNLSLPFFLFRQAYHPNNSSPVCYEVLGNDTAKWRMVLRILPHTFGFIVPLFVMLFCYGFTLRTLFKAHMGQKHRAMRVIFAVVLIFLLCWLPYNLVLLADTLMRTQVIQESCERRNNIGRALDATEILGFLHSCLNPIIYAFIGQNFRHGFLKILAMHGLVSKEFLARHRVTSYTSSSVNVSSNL

Molecule: biotinIL-8 (6-78) (IL-8 (6-78) derivatised at the ε-amino side chain functionality of Lys(78) with PEG-Biotin) (from UniProt P10145 28-99) (ligand)
EC50, agonist activity, Aequorin assay (hCXCR1 (human)): 6.1 nM

Molecule: biotinRANTES (RANTES derivatised at the ε-amino side chain functionality of Lys(67) with Biotin) (from UniProt P13501 24-91) (ligand)
EC50, agonist activity, Aequorin assay (CCR5 (human) [1]): 0.5 nM
reduction of chemokine receptor-expressing cells by the column (CCR1 (human)): 20%
reduction of chemokine receptor-expressing cells by the column (CCR3 (human) [2]): 20%
reduction of chemokine receptor-expressing cells by the column (CCR5 (human) [3]): 20%

Molecule: recombinant native MIP-3β (from UniProt Q99731 22-98) (ligand)
EC50, Aequorin assay (CCR7): 1.6 nM

B1: recombinant native MCP-2 (ligand, human, UniProt P80075 24-99, looked up)
chain: QPDSVSIPITCCFNVINRKIPIQRLESYTRITNIQCPKEAVIFKTKRGKEVCADPKERWVRDSMKHLDQIFQNLKP
EC50, partial agonist, Aequorin assay (hCCR2b): 23.5 nM

B2: biotinMIP-3β (MIP-3β derivatised at the ε-amino side chain functionality of Lys(78) with Biotin) (ligand)
chain: GTNDAEDCCLSVTQKPIPGYIVRNFHYLLIKDGCRVPAVVFTTLRGRQLCAPPDQPWVERIIQRLQRTSAKMKRRSSX
modifications: X78 = K(Biotin) (additional C-terminal lysine, biotinylated); C-terminal amide (Rink Amide resin)
EC50, agonist activity, Aequorin assay (CCR7): 11 nM

Second part, the molecule after the results:

reduction of CCR3-expressing cells by the column (CCR3 (human) [4]): 25%
Molecule: biotinylated eotaxin (from UniProt P51671 24-97) (ligand)

EC50, Aequorin assay (hCXCR1 (human)): 4.2 nM
Molecule: recombinant native IL-8 (from UniProt P10145 28-99) (ligand)

EC50, agonist, Aequorin assay (CCR3 (human) [5]): 10.7 nM
Molecule: recombinant native eotaxin (from UniProt P51671 24-97) (ligand)
